The results in this text go back to article PMC11255602.

Usually stoichiometry N stands for a count of units in the complex or per binding partner.

In assay [1] the target is PRMT1 S14 (N-terminal truncation lacking the first 13 amino acids) (UniProt Q99873). The assay can be described thus: native gel or EMSA. For orientation: Mobility shift assays separate free from complexed probe on a gel.
Assay [2] has as its target PRMT1 E27 (N-terminal truncation lacking the first 26 amino acids) (UniProt Q99873). As to the kind of experiment: native gel or EMSA.

In the case of “PRMT1 S14 (N-terminal truncation lacking the first 13 amino acids) (from UniProt Q99873-3 14-353) (domain or fragment)”, in assay [1], the stoichiometry N is 4.
“PRMT1 E27 (N-terminal truncation lacking the first 26 amino acids) (from UniProt Q99873-3 27-353) (domain or fragment)” displayed a stoichiometry N in assay [2] of 4.
